Measurements taken from US20230151068A1.
Substitutions are numbered along the chain they refer to. Numbers in names are those of the source. Blank lines part the entries; values can stand above or below the binder they belong to.

Molecular target: biotinylated His-Avi-TEAD (194-411) (UniProt P28347)
Assay: SSM screen, enrichment after two rounds of sorting

B1: G15R variant of SEQ ID NO: 1 (designed binder)
chain: GSPDEYIERAKECCKKRDIQCCLRYFEESGDPNVMLICLFCP
- enrichment score: 0.91

B4: G15T variant of SEQ ID NO: 1 (designed binder)
chain: B1 chain with R17T
- enrichment score: 2.65

B6: I17T variant of SEQ ID NO: 1 (designed binder)
chain: B1 chain with R17G, I19T
- enrichment score: 2.21

B10: Q18R variant of SEQ ID NO: 1 (designed binder)
chain: B1 chain with R17G, Q20R
- enrichment score: -3.67

B12: Q18N variant of SEQ ID NO: 1 (designed binder)
chain: B1 chain with R17G, Q20N
- enrichment score: -0.16

B13: K13M variant of SEQ ID NO: 1 (designed binder)
chain: B1 chain with K15M, R17G
- enrichment score: -0.4

B14: K13A variant of SEQ ID NO: 1 (designed binder)
chain: B1 chain with K15A, R17G
- enrichment score: 1.94

B17: G15M variant of SEQ ID NO: 1 (designed binder)
chain: B1 chain with R17M
- enrichment score: 1.64

B18: G15Q variant of SEQ ID NO: 1 (designed binder)
chain: B1 chain with R17Q
- enrichment score: 2.5

B19: D16Q variant of SEQ ID NO: 1 (designed binder)
chain: B1 chain with R17G, D18Q
- enrichment score: -3.47

B23: G15S variant of SEQ ID NO: 1 (designed binder)
chain: B1 chain with R17S
- enrichment score: 2.37

B24: I17Q variant of SEQ ID NO: 1 (designed binder)
chain: B1 chain with R17G, I19Q
- enrichment score: -3.1

B28: K13N variant of SEQ ID NO: 1 (designed binder)
chain: B1 chain with K15N, R17G
- enrichment score: 0.6

B29: D16T variant of SEQ ID NO: 1 (designed binder)
chain: B1 chain with R17G, D18T
- enrichment score: -10

B31: Q18I variant of SEQ ID NO: 1 (designed binder)
chain: B1 chain with R17G, Q20I
- enrichment score: -11.4

B32: D16A variant of SEQ ID NO: 1 (designed binder)
chain: B1 chain with R17G, D18A
- enrichment score: -5.23

B33: D16I variant of SEQ ID NO: 1 (designed binder)
chain: B1 chain with R17G, D18I
- enrichment score: -6.42

B34: K13T variant of SEQ ID NO: 1 (designed binder)
chain: B1 chain with K15T, R17G
- enrichment score: 1.49

B35: I17N variant of SEQ ID NO: 1 (designed binder)
chain: B1 chain with R17G, I19N
- enrichment score: 0.47

B36: D16M variant of SEQ ID NO: 1 (designed binder)
chain: B1 chain with R17G, D18M
- enrichment score: -4.12

B39: K14I variant of SEQ ID NO: 1 (designed binder)
chain: B1 chain with K16I, R17G
- enrichment score: -0.99

B42: K13Q variant of SEQ ID NO: 1 (designed binder)
chain: B1 chain with K15Q, R17G
- enrichment score: 2.23

Other lines, results leading:

- enrichment score: -0.92
B2: K14M variant of SEQ ID NO: 1 (designed binder)
chain: B1 chain with K16M, R17G

- enrichment score: -5.59
B3: D16R variant of SEQ ID NO: 1 (designed binder)
chain: B1 chain with R17G, D18R

- enrichment score: 3.06
B5: G15N variant of SEQ ID NO: 1 (designed binder)
chain: B1 chain with R17N

- enrichment score: -1.53
B7: Q18A variant of SEQ ID NO: 1 (designed binder)
chain: B1 chain with R17G, Q20A

- enrichment score: -4.36
B8: I17A variant of SEQ ID NO: 1 (designed binder)
chain: B1 chain with R17G, I19A

- enrichment score: -2.7
B9: D16N variant of SEQ ID NO: 1 (designed binder)
chain: B1 chain with R17G, D18N

- enrichment score: -2.1
B11: I17S variant of SEQ ID NO: 1 (designed binder)
chain: B1 chain with R17G, I19S

- enrichment score: -2.95
B15: I17M variant of SEQ ID NO: 1 (designed binder)
chain: B1 chain with R17G, I19M

- enrichment score: -0.22
B16: K14A variant of SEQ ID NO: 1 (designed binder)
chain: B1 chain with K16A, R17G

- enrichment score: -1.96
B20: G15I variant of SEQ ID NO: 1 (designed binder)
chain: B1 chain with R17I

- enrichment score: 1.61
B21: K14S variant of SEQ ID NO: 1 (designed binder)
chain: B1 chain with K16S, R17G

- enrichment score: -1.25
B22: Q18S variant of SEQ ID NO: 1 (designed binder)
chain: B1 chain with R17G, Q20S

- enrichment score: -2.71
B25: D16S variant of SEQ ID NO: 1 (designed binder)
chain: B1 chain with R17G, D18S

- enrichment score: -1.54
B26: K13I variant of SEQ ID NO: 1 (designed binder)
chain: B1 chain with K15I, R17G

- enrichment score: -9.52
B27: Q18M variant of SEQ ID NO: 1 (designed binder)
chain: B1 chain with R17G, Q20M

- enrichment score: 1.43
B30: K13S variant of SEQ ID NO: 1 (designed binder)
chain: B1 chain with K15S, R17G

- enrichment score: -2.28
B37: Q18T variant of SEQ ID NO: 1 (designed binder)
chain: B1 chain with R17G, Q20T

- enrichment score: 1.89
B38: G15A variant of SEQ ID NO: 1 (designed binder)
chain: B1 chain with R17A

- enrichment score: 0.46
B40: I17R variant of SEQ ID NO: 1 (designed binder)
chain: B1 chain with R17G, I19R

- enrichment score: 1.51
B41: K14N variant of SEQ ID NO: 1 (designed binder)
chain: B1 chain with K16N, R17G

- enrichment score: 0.17
B43: K14Q variant of SEQ ID NO: 1 (designed binder)
chain: B1 chain with K16Q, R17G

- enrichment score: 3.18
B44: K14T variant of SEQ ID NO: 1 (designed binder)
chain: B1 chain with K16T, R17G
